The results in this text go back to patent publication US20140120109A1 (Regeneron, published 2014).

To fix the notation:
B1: H4H1817N (antibody, human IgG4 S228P, V domains shown)
VH: QVQLQQWGAGLLKPSETLSLTCAVSGGSFSDYFWTWIRQPPGKGLEWIGEISHSGRTNYNPSLKSRVTISVDTSMSQFSLKMTSVTAADSAVYYCARDYPNWVFDYWGQGTLVTVSS
VL: EIELTQSPGTLSLSPGEGATLSCRASQSVFNSYLAWYQQKPGQAPRLLIYGASRRATGIPDRFSGSGSGTDFTLTISRLEPGDFAVYFCQQYGNSPLTFGGGTKVEIK
notes: human IgG4(S108P) form of H2M1817N
B2: H4H1804N (antibody, human IgG4 S228P, V domains shown)
VH: QVQLHQWGAGLLKPSETLSLTCAVSGVSFSDYHWAWIRQSPGKGLEWIGDINHRGRTNYNPSLKSRVTISLDTSGNPFSLKLTSVTAADTAVYYCARDFPNWVFDSWGQGILVTVSS
VL: EIVLSQSPGTLSLSPGERATLSCRASQSVSSSFLAWYQQYPGQAPRLLIYGASRRATGIPDRFRGSGSGTDFTLTISRLEPEDFAVYYCQQYGSSPLTFGGGTKVENK
notes: human IgG4(S108P) form of H2M1804N
B3: H4H1742P (antibody, human IgG4 S228P, V domains shown)
VH: EVQLVESGGGLVQPGGSLRLSCAASGFTFSNYVMNWVRQAPGKGLEWVSVISGSGGSTHYADSVKGRFTISRDNSKDALYLQMNSLRAEDTAVYYCAKGPLEAYYYYNGMDVWGQGTTVTVSS
VL: DIQLTQSPSFLSASVGDRVTITCWASQAISSYLAWYQHKPGRAPKLLIYSTSTLQSGVPSRFSGSGSGTEFTLTISSLQPEDFATYYCQQLNSYPTFGQGTKLEIK
B4: H4H1704N (antibody, human IgG4 S228P, V domains shown)
VH: EVQLVESGGGLVQPGGSLRLSCAVSGFTFSSYWMSWVRQAPGKGLEWVANIKEDGSEKNYVDSVKGRFTLSSDNAKNSLYLQMNSLRAEDTAVYYCAREDYDSYYKYGMDVWGQGTAVIVSS
VL: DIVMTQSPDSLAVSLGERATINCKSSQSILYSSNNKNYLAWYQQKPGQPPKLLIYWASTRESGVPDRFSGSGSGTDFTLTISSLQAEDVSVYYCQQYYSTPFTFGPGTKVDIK
notes: human IgG4(S108P) form of H2M1704N
B5: H4H1818N (antibody, human IgG4 S228P, V domains shown)
VH: RLQLVESGGGLVKPGGSLKLSCAASGFTISDYYMSWIRQAPGKGLEWVSYIGGSGSTIYYADSVKGRFTISRDNAKNSLYLQMNSLRAEDTAVYYCAREDADSYYYYGMDVWGQGTTVTVSS
VL: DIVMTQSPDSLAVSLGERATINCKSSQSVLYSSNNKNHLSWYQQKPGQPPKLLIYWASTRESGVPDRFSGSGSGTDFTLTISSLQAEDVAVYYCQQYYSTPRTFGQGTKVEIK
notes: human IgG4(S108P) form of H2M1818N
B6: H4H1725P (antibody, human IgG4 S228P, V domains shown)
VH: QVQLVQSGAEVKKPGASVKVSCKASGYTFTGYYMHWVRQAPGQGLEWMGWIKPKSGGTNYVQKFQGRVTMTRDTSINTAYMELNNLKSDDTAVYYCATGGSQDASDFWGQGTMVTVSS
VL: DIQMTQSPSSVSASVGGRVTITCRASQDISIWLAWYQQKPGKAPNLLIYAASSLQSGVPSRFSGSGSGTDFTLTISSLQPEDFATYYCQQADSFPLTFGGGTKVEIK
B7: H4H1738P (antibody, human IgG4 S228P, V domains shown)
VH: EVQLVESGGALVKPGGSLRLSCAVSGFTFINDWMNWVRQAPGKGLEWVGRIKSTTDGGTTDDAAPVKGRFTISRDDSKNTLYLQMNSLKTEDTAVYYCTRDRNRQRNYFYDGMDVWGQGTTVTVSA
VL: DIVMTQSPVSLPVTPGEPASISCRSSQRLLHNNGNNYLDWYLQKPGQSPQLLIYLGSNRASGVPDRFSGSGSGTDFTLKVSRVEAEDVGVYYCMQALQTPYTFGQGTKLEIK
B8: H4H1745P (antibody, human IgG4 S228P, V domains shown)
VH: EVQLVESGGGLVQPGGSLRLSCAASGFTFSSYAMTWVRQAPGKGLEWVSGVSGRGGSTYYADSVKGRFTISRDNSKNTLYLQMNSLRAEDTAVYYCAYWDISSFDYWGQGTLVTVSS
VL: DIQLTQSPSFLSASVGDRVTITCWASQGISTYLAWYQQKPGKTPKLLIYAASTLQSGVPSRFSGSGSGTDFTLTISSLQPEDFATYYCQQFNSYPLTFGGGTKVEIK

Changes are numbered by the printed parent chain. Names and notes keep the numbering of the source.

In the first experiment the target is T1, rat TL1A, soluble, CHO-expressed, residues 76-252 of SEQ ID NO:258 with N-terminal His6-tag (rat, UniProt Q8K3Y7 76-252).
T1 sequence: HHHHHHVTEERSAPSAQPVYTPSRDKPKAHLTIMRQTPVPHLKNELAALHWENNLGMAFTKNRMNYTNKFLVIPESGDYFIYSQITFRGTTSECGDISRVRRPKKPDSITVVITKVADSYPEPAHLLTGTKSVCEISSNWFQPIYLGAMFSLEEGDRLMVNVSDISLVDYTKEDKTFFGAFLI
As to the kind of experiment: cell-based or functional assay.
For the molecule B1, the “IC50, NFkB-luciferase reporter” value amounted to 23.9 nM.

For the molecule B2, the “IC50, NFkB-luciferase reporter” value is 3.64 nM.

Turning to B3, the “IC50, NFkB-luciferase reporter” value was 6.12 nM.

B4: the “IC50, NFkB-luciferase reporter” value was 0.4 nM.

Consider B5, for which the “IC50, NFkB-luciferase reporter” value worked out at 1.1 nM.

In the case of B6, the “IC50, NFkB-luciferase reporter” value turned out to be 63.4 nM.

The target in another experiment is T2, Fhm, hTL1A(Q167R), soluble, CHO-expressed, residues 72-251 of SEQ ID NO:246 (human, UniProt O95150 72-251).
T2 chain: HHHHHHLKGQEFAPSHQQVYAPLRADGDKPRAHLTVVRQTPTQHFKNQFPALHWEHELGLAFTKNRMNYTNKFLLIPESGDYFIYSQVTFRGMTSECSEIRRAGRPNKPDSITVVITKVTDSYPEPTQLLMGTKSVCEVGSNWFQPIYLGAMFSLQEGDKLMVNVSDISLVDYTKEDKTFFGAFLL
As to the kind of experiment: cell-based or functional assay.
B1: the “IC50, NFkB-luciferase reporter” value stood at 0.12 nM.

As to B2, the “IC50, NFkB-luciferase reporter” value was found to be 0.1 nM.

In the case of B3, the “IC50, NFkB-luciferase reporter” value was 0.53 nM.

For B4, the “IC50, NFkB-luciferase reporter” value is 0.17 nM.

Turning to B7, the “IC50, NFkB-luciferase reporter” value was 0.33 nM.

For the molecule B5, the “IC50, NFkB-luciferase reporter” value is 0.62 nM.

For the molecule B8, the “IC50, NFkB-luciferase reporter” value came to 0.15 nM.

For the molecule B6, the “IC50, NFkB-luciferase reporter” value is 0.07 nM.

For the next experiment, the target named is T3, mouse TL1A, soluble, CHO-expressed, residues 76-252 of SEQ ID NO:250 with N-terminal His6-tag (mouse, UniProt Q5UBV8 76-252).
T3 construct: also called mTL1A; mTL1A (CHO)
T3 sequence: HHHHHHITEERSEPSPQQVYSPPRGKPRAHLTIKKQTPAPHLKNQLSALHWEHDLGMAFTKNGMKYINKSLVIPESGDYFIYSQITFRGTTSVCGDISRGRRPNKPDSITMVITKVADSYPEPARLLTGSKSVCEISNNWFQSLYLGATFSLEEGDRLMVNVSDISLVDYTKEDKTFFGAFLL
As to the kind of experiment: SPR 37C, mAb captured. An outline of the steps: (§1)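 Biacore T100 SPR with captured mAb and soluble TL1A/Fhm analyte; ka and kd fitted to a 1:1 model assuming monomeric TL1A. KD = kd/ka; t1/2 (min) = ln2/(60·kd).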
Take B2: the binding result is recorded as “no binding (tested: up to 100 nM)”.

Regarding B3, the binding result is recorded as “no binding (tested: up to 100 nM)”.

In the case of B4, binding was characterised by a dissociation constant (Kd) of 1.3 nM and the t1/2 was found to be 0.45 h.

Turning to B7, the binding result is on record as “no binding (tested: up to 100 nM)”.

On to B8, for which the binding result was “no binding (tested: up to 100 nM)”.

A further experiment addresses T4, human TL1A, soluble, CHO-expressed, residues 72-251 of SEQ ID NO:244 with N-terminal His6-tag (human, UniProt O95150 72-251).
T4 construct: also called hTL1A; hTL1A (CHO)
T4 sequence: T2 chain with R102Q
Briefly: SPR 37C, mAb captured. The essentials:
as §1
For B1, the dissociation constant Kd was found to be 0.0278 nM and the t1/2 was 18.3 h.

Regarding B2, the dissociation constant (Kd) was 0.0458 nM and the t1/2 was determined as 4.77 h.

Consider B7, for which the dissociation constant Kd was 0.571 nM and the t1/2 came out at 0.85 h.

Turning to B8, the affinity, expressed as Kd, was 0.177 nM and the t1/2 is 2.15 h.

Take B6: the affinity, expressed as Kd, was 0.0239 nM and the t1/2 was found to be 12.6 h.

A further experiment has as its target T5, cynomolgus monkey TL1A, soluble, E. coli-expressed, residues 72-251 of SEQ ID NO:248 (cynomolgus monkey (Macaca fascicularis), UniProt O95150 72-251 (human entry)).
T5 construct: with or without N-terminal Met; also called MfTL1A (E. Coli)
T5 chain: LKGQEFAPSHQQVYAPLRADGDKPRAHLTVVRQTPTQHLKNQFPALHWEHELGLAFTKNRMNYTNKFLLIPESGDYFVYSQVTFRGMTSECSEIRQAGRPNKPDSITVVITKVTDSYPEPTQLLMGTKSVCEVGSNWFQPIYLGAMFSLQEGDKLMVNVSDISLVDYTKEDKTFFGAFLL
As to the kind of experiment: SPR 37C, mAb captured. An outline of the steps: as §1
B3 yielded a Kd of 0.945 nM and a t1/2 of 0.583 h.

B7 showed a Kd of 4.2 nM and a t1/2 of 0.0667 h.

For B8, the dissociation constant Kd stood at 0.281 nM and the t1/2 amounted to 1.23 h.

Regarding B6, the dissociation constant (Kd) is 0.0622 nM and the t1/2 was determined as 2.9 h.

The target in the next experiment is T6, cynomolgus monkey TL1A, soluble, CHO-expressed, residues 72-251 of SEQ ID NO:248 with N-terminal His6-tag (cynomolgus monkey (Macaca fascicularis), UniProt O95150 72-251 (human entry)).
T6 construct: also called MfTL1A; MfTL1A (CHO)
T6 chain: T2 chain with F45L, I84V, R102Q
Briefly: SPR 37C, mAb captured. The essentials:
as §1
Consider B1, for which the Kd is 0.0256 nM and the t1/2 worked out at 19.2 h.

For B2, binding was characterised by a dissociation constant (Kd) of 0.078 nM and the t1/2 was determined as 2.78 h.

The molecule B7 showed a Kd of 0.465 nM and a t1/2 of 1 h.

The molecule B8 came in with a Kd of 0.173 nM and a t1/2 of 2.07 h.

In the case of B6, the Kd amounted to 0.0177 nM and the t1/2 was determined as 14.8 h.

The target of another experiment is T2, Fhm, hTL1A(Q167R), soluble, …. Briefly: ELISA, blocks FHM (150 pM) binding hDR3-Fc. Here is the method: The ability of antibodies to block human TL1A binding to its cognate receptors, the DR3 and DcR3 receptors, was measured using a competition sandwich ELISA. In addition, blocking of a human TL1A variant FHM (human TL1A Q167R) and the cynomolgus monkey (Macaca fascicularis) TL1A (MfTL1A) protein binding to the human DR3 or DcR3 receptors was measured in the same manner. Constant amounts of biotinylated human TL1A or FHM (both expressed with a 6-His tag in CHO cells) or biotinylated MfTL1A (expressed in CHO cells) were separately titrated with varying amounts of antibodies. The antibody-protein complexes were incubated in solution (1 hr, 25° C.) and then transferred to microtiter plates coated with human DR3 (hDR3) or human DcR3 (hDcR3) expressed as human IgG1 Fc fusion proteins. After one hour at 25° C. the wells were washed, and bound human or monkey TL1A was detected with streptavidin conjugated with horseradish peroxidase (HRP). Wells were developed with a TMB solution to produce a colorimetric reaction and quenched with aqueous sulfuric acid before reading absorbance at 450 nm on a Perkin-Elmer Victor X5 plate reader. A sigmoidal dose-response curve was fit to the data using the Prism™ data analysis package. […] Both fully human anti-hTL1A mAbs and comparator antibodies, i.e., control mAb1 (an anti-hTL1A antibody with heavy and light chain variable domains having the amino acid sequences corresponding to SEQ ID NOS:21 and 27, respectively, of US 2009/0280116) and control mAb3 (an anti-hTL1A antibody with heavy and light chain variable domains having the amino acid sequences corresponding to SEQ ID NOS:57 and 48, respectively, of US 2009/0280116), were included in the study. NB: No binding under the conditions tested; NT: Not tested. Concentrations of biotinylated soluble ligands: (1) 150 pM; (2) 500 pM; (3) 10 pM; and (4) 50 pM.
(In an ELISA, binding on a coated surface is turned into a signal by an enzyme label.)
With B1, the IC50 is 0.235 nM.

In the case of B3, the IC50 came to 0.214 nM.

The molecule B4 displayed an IC50 of 0.044 nM.

Turning to B7, the 50% inhibitory concentration (IC50) stood at 0.152 nM.

In the case of B5, the concentration for half-maximal inhibition (IC50) was 0.202 nM.

In turn, B8 registered a half-inhibitory concentration (IC50) of 0.044 nM.

For the molecule B6, the IC50 was found to be 0.018 nM.

What is called Kd is the free concentration of one partner at which half of the binding sites on the other are occupied at equilibrium, for simple one-to-one binding. As a reminder, the IC50 is the midpoint of a concentration-inhibition curve.
